{
  "source": "patent US20080319163A1",
  "about": "“Method for Isolating and Purifying Immuno-Modulating Polypeptide from Cow Placenta” (priority 2005, published 2008)",
  "key": {"[1]": {"assay": "Isoelectric point by CIEF (capillary isoelectric focusing)", "type": "physicochemical", "details": "determined by CIEF", "description": "3) Determining isoelectric point of immuno-modulating polypeptide by CIEF.\nThe foresaid methods 2)-5) are the normal methods known as those skilled in the art."}, "[2]": {"tested_on": "mice spleen lymphocyte", "assay": "Stimulating lymphocyte proliferation in vitro (MTT method)", "type": "cell-based", "details": "mice spleen lymphocyte suspension, 68 h + 4 h MTT, OD 570 nm; chromatography fractions screened; values only in figures; listed as component 4", "protocol": "1) Stimulating Lymphocyte Proliferation in vitro\nCulturing Cells • 1 Preparing Spleen Lymphocyte Suspension:\nRemove out the mice spleen under sterile condition, separate lymphocyte by lymphocyte separation medium, regulate the cell concentration to 1×10^6/ml with complete 1640 culture solution. • 2 Experiment Arrangement:\nSet control group and experiment group separately to identify the activity of stimulating spleen lymphocyte proliferation by every component. • 3. Experiment Method:\nAdd 100 μL mice spleen lymphocyte suspension (1×10^6/mL) to 96 well cultured plates. Add 100 μL saline/sample to control group and experiment group separately. Mix to homogenous gently, culture in incubator for 68 h at 37° C. under 5% CO2. Add 20 μl MTT to every well under sterile condition, Mix to homogenous gently, continue to culture for 4 h, add 100 μl dimethyl sulfoxide to every well, keep at room temperature for 10 min, then determine OD of every well by ELISA at 570 nm. • 4. Data Processing\nThe spleen lymphocyte proliferation rate of experiment group is calculated by the following formula: […]\nThe value of P is calculated by variance analysis, and significant difference is calculate by T test."}},
  "note": "“Also recorded” adds a separate entry of the source.",
  "data": [
    {"substance": "Tyr-X-Phe-Leu-Gly-Leu-Pro-Gly-X-Thr [immuno-modulating polypeptide]", "values": [
      {"measurement": "isoelectric point", "setting": "[1]", "result": 3.82},
      {"measurement": "activity determined by stimulating lymphocyte proliferation in vitro", "setting": "[2]", "result": "high-purity inmmuno-modulating polypeptide; also recorded: high-purity immuno-modulating polypeptide"}
    ]}
  ]
}
